localisation_or_trafficking data for three proteins are collected here from paper PMC9598255.

Holding throughout (conditions): glycan lost; control: wild type
A short description of series [1]: co-immunostaining with ER marker KDEL, HEK293.
Series [2] is described as follows: co-immunostaining with Golgi marker GM130, HEK293.
The nature of series [3]: flow cytometry of cell surface TMPRSS2, HEK293. In general terms: Flow cytometry measures light scatter and fluorescence of single cells or particles in a stream.

B1: TMPRSS2 (transmembrane protease serine 2): N286Q (protein)
parent chain: MPPAPPGGESGCEERGAAGHIEHSRYLSLLDAVDNSKMALNSGSPPAIGPYYENHGYQPENPYPAQPTVVPTVYEVHPAQYYPSPVPQYAPRVLTQASNPVVCTQPKSPSGTVCTSKTKKALCITLTLGTFLVGAALAAGLLWKFMGSKCSNSGIECDSSGTCINPSNWCDGVSHCPGGEDENRCVRLYGPNFILQVYSSQRKSWHPVCQDDWNENYGRAACRDMGYKNNFYSSQGIVDDSGSTSFMKLNTSAGNVDIYKKLYHSDACSSKAVVSLRCIACGVNLNSSRQSRIVGGESALPGAWPWQVSLHVQNVHVCGGSIITPEWIVTAAHCVEKPLNNPWHWTAFAGILRQSFMFYGAGYQVEKVISHPNYDSKTKNNDIALMKLQKPLTFNDLVKPVCLPNPGMMLQPEQLCWISGWGATEEKGKTSEVLNAAKVLLIETQRCNSRYVYDNLITPAMICAGFLQGNVDSCQGDSGGPLVTSKNNIWWLIGDTSWGSGCAKAYRPGVYGNVMVFTDWIYRQMRADG
In the case of B1, the localisation_or_trafficking entry in series [1], in series [2] and in series [3] was “no change” each time.

B2: TMPRSS2 (transmembrane protease serine 2): N250Q (protein)
parent chain: MPPAPPGGESGCEERGAAGHIEHSRYLSLLDAVDNSKMALNSGSPPAIGPYYENHGYQPENPYPAQPTVVPTVYEVHPAQYYPSPVPQYAPRVLTQASNPVVCTQPKSPSGTVCTSKTKKALCITLTLGTFLVGAALAAGLLWKFMGSKCSNSGIECDSSGTCINPSNWCDGVSHCPGGEDENRCVRLYGPNFILQVYSSQRKSWHPVCQDDWNENYGRAACRDMGYKNNFYSSQGIVDDSGSTSFMKLNTSAGNVDIYKKLYHSDACSSKAVVSLRCIACGVNLNSSRQSRIVGGESALPGAWPWQVSLHVQNVHVCGGSIITPEWIVTAAHCVEKPLNNPWHWTAFAGILRQSFMFYGAGYQVEKVISHPNYDSKTKNNDIALMKLQKPLTFNDLVKPVCLPNPGMMLQPEQLCWISGWGATEEKGKTSEVLNAAKVLLIETQRCNSRYVYDNLITPAMICAGFLQGNVDSCQGDSGGPLVTSKNNIWWLIGDTSWGSGCAKAYRPGVYGNVMVFTDWIYRQMRADG
For B2, the results for the localisation_or_trafficking result in series [1] and in series [2] were “changes” and “no change”, respectively.

B3: TMPRSS2 (transmembrane protease serine 2): N250Q/N286Q (protein)
parent chain: MPPAPPGGESGCEERGAAGHIEHSRYLSLLDAVDNSKMALNSGSPPAIGPYYENHGYQPENPYPAQPTVVPTVYEVHPAQYYPSPVPQYAPRVLTQASNPVVCTQPKSPSGTVCTSKTKKALCITLTLGTFLVGAALAAGLLWKFMGSKCSNSGIECDSSGTCINPSNWCDGVSHCPGGEDENRCVRLYGPNFILQVYSSQRKSWHPVCQDDWNENYGRAACRDMGYKNNFYSSQGIVDDSGSTSFMKLNTSAGNVDIYKKLYHSDACSSKAVVSLRCIACGVNLNSSRQSRIVGGESALPGAWPWQVSLHVQNVHVCGGSIITPEWIVTAAHCVEKPLNNPWHWTAFAGILRQSFMFYGAGYQVEKVISHPNYDSKTKNNDIALMKLQKPLTFNDLVKPVCLPNPGMMLQPEQLCWISGWGATEEKGKTSEVLNAAKVLLIETQRCNSRYVYDNLITPAMICAGFLQGNVDSCQGDSGGPLVTSKNNIWWLIGDTSWGSGCAKAYRPGVYGNVMVFTDWIYRQMRADG
For B3, the localisation_or_trafficking result in series [1] is listed as “changes”.
